Reference: article PMC10200060, “Inhibition of DAMP actions in the tumoral microenvironment using lactoferrin-glycyrrhizin conjugate for glioblastoma therapy” (Biomaterials Research, 2023)

What was measured:
HMGB1 = test: Immunofluorescence staining of HMGB1 in GBM tissue; assay type: in vivo, Balb/c nude mice; conditions: GBM mice, daily i.v. GL equivalent 50 mg kg^−1, 14 days (control 15.3 ± 1.7)
From the text: (§1) After two weeks, mice were sacrificed, and the brains were harvested and fixed with paraformaldehyde (4%). Then, tissue processing was automatically conducted using a Leica TP1020 semi-enclosed Benchtop Tissue Processor (Leica Biosystems, Wetzlar, Hesse, Germany), followed by embedding in paraffin blocks. Paraffin blocks were sliced into 5 μm thick slices using a Leica RM2145 Microtome (Leica Biosystems). Nissl staining was used to stain brain tissue slides with pre-warmed 0.1% Cresyl Violet Stain Solution (Abcam). TUNEL assays were conducted following the manufacturer’s instructions. For immunofluorescence staining; anti-HMGB1 antibody (Abcam), anti-Ki67 antibody (Abcam), anti-CD31 antibody (Abcam), and anti-VEGF antibody (Abcam) were used as primary antibodies, and goat anti-rabbit IgG-H&L Alexa Fluor 488 and goat anti-rabbit IgG H&L Alexa Fluor 647 were used as secondary antibodies, followed by DAPI mounting.

rat aortic rings = test: Aorta ring assay (ex vivo); conditions: VEGF-conditioned medium, GL equivalent 200 µM, 14 days
Procedure: An aorta ring assay was conducted to confirm the anti-angiogenesis effect of Lf-GL ex vivo. A 48-well plate was coated with of Matrigel® (100 μL) and was incubated for 30 min or more in 37℃ incubators. In the meantime, thoracic aortas of 7-week-old male SD rats were excised. Then, the fat layer and outer membrane were removed, and rings approximately 1 mm in length were prepared. The prepared aortic rings were seeded on a coated Matrigel® of 48-well plate and were covered with Matrigel®. (100 μL) Subsequently, the aortic ring was treated with a control (with or without 25 ng mL^−1 of VEGF) or different concentrations of Lf-GL complex. Medium was changed once every two days. Fourteen days after treatment, optical images of sprouting microvessels were obtained using microscopy magnification (× 40 or × 100). Sprouting microvessel area was quantified using Image J and Sigma Plot.
Fig. S14. Significant inhibitory effect of Lf-GL in aortic ring angiogenesis. Optical images of vessel regression in aortic ring with Lf-GL treatment. Aortic ring assay was carried out in 48-well plate coated with Matrigel. VEGF-non treated control represents that aortic ring incubated with normal medium. VEGF-treated control represents that aortic ring incubated with 25 ng mL^-1 VEGF-conditioned medium. […]

[1] = mouse, in vivo, iv
HUVEC = HUVEC co-cultured with U87MG: CCK-8 at basal chamber; assay type: cell-based, human; conditions: HUVEC/U87MG Transwell co-culture, 100 μM GL equivalent, 24 h
Procedure: To evaluate the inhibitory effect of Lf-GL on neovascularization in the tumor microenvironment in vitro, U87MG cells were seeded in the Transwell® insert chambers that were 6.5 mm in diameter and had 0.4 μm pore sizes (seeding density: 2.5 × 10^4 cells per well, Corning). HUVECs were seeded in the Transwell basal chamber (seeding density: 5.0 × 10^4 cells per well). GL, Lf, or Lf-GL (100 × 10^–6 M of GL equivalent concentration) were added to the insert chamber, and cells were incubated for 24 h. CCK-8 assay and HMGB1 ELISA were conducted at the basal chamber.

[2] = tested on: orthotopic GBM (U87MG) mice model; test: Nissl staining: GBM/normal brain ratio; assay type: in vivo, Balb/c nude mice; conditions: daily i.v. GL equivalent 50 mg kg^−1, 14 days (control 37.5 ± 2.3)
From the text: as §1

B1: Lf-GL: lactoferrin-glycyrrhizin conjugate with ligation ratio Lf:GL 1:10, used in further experiments (conjugate, UniProt P24627 20-708, looked up)
Lactotransferrin: APRKNVRWCTISQPEWFKCRRWQWRMKKLGAPSITCVRRAFALECIRAIAEKKADAVTLDGGMVFEAGRDPYKLRPVAAEIYGTKESPQTHYYAVAVVKKGSNFQLDQLQGRKSCHTGLGRSAGWIIPMGILRPYLSWTESLEPLQGAVAKFFSASCVPCIDRQAYPNLCQLCKGEGENQCACSSREPYFGYSGAFKCLQDGAGDVAFVKETTVFENLPEKADRDQYELLCLNNSRAPVDAFKECHLAQVPSHAVVARSVDGKEDLIWKLLSKAQEKFGKNKSRSFQLFGSPPGQRDLLFKDSALGFLRIPSKVDSALYLGSRYLTTLKNLRETAEEVKARYTRVVWCAVGPEEQKKCQQWSQQSGQNVTCATASTTDDCIVLVLKGEADALNLDGGYIYTAGKCGLVPVLAENRKSSKHSSLDCVLRPTEGYLAVAVVKKANEGLTWNSLKDKKSCHTAVDRTAGWNIPMGLIVNQTGSCAFDEFFSQSCAPGADPKSRLCALCAGDDQGLDKCVPNSKEKYYGYTGAFRCLAEDVGDVAFVKNDTVWENTNGESTADWAKNLNREDFRLLCLDGTRKPVTEAQSCHLAVAPNHAVVSRSDRAAHVKQVLLHQQALFGKNGKNCPDKFCLFKSETKNLLFNDNTECLAKLGGRPTYEEYLGTEYVTAIANLKKCSTSPLLEACAFLTR
modifications: glycyrrhizin conjugate
- Mean fluorescence intensity (MFI) of HMGB1 (HMGB1): 1.7 ± 1.0
- Decrease of sprouted area of the micro-vessel (rat aortic rings): 80.2 ± 4.5%
- Time after administration until cleared from / remaining in circulation [1]: 720 min
- T1/2, elimination half-life ([1]; 50 mg/kg): 5.3 ± 0.4 min
- Reduction of endothelial cell proliferation (HUVEC): 13.0 ± 0.7%
- GBM/normal brain ratio [2]: 8.9 ± 3.2
